The assay deals with OLFM4 recombinant protein (SPR) (UniProt Q3UZZ4). Kind of assay: SPR.

What is called pKd is −log10 of the Kd, conventionally taken in molar units.

pKd: −log10 of the molar value.

Sequence of UniProt Q3UZZ4 (Q3UZZ4 19-505): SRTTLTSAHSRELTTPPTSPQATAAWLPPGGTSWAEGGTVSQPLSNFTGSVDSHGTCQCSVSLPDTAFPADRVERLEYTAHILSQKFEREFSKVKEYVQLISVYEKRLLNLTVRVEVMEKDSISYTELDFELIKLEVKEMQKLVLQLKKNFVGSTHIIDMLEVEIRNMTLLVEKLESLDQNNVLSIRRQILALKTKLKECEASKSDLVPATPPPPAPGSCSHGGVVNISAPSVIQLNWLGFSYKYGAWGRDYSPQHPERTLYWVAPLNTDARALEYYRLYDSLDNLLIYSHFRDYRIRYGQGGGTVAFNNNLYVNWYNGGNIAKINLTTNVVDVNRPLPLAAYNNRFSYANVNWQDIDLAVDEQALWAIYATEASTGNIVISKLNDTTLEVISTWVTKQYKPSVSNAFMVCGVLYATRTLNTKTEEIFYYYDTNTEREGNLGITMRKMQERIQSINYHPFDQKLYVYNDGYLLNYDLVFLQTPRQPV

Regarding “MTDH protein, extracellular domain (SPR) (from UniProt Q80WJ7 1-48) (domain or fragment)”, the pKd is 10.66.

For the origin of these results see publication PMC11286877.
